Measurements as given in the supplement of paper PMC9170038.

System: MS2 coat protein
Assay: apparent KD of MS2 coat protein; designed switch direction (-1 OFF switch, 1 ON switch): -1; higher = weaker reporter binding
Method in brief: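 Transcription of designed RNA switches on Illumina chips was done by stalled E. coli RNA polymerase. SNAP-549-labelled MS2 coat protein was then titrated in doubling steps from 0.7 or 1.5 nM to 3 µM, with steps of 0.8–1.5 h at the lowest and 10–20 min at the highest concentration. The per-design median over clusters of curve-fitted normalised fluorescence is reported as apparent KD.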

[1] = input ligand: microRNA oligo, concentration not stated
[2] = Eterna round: R95, input ligand: microRNA oligo, concentration not stated

| Sequence | apparent KD of MS2 coat protein (input ligand: FMN 200 uM) [nM] | apparent KD of MS2 coat protein (input ligand: none) [nM] | apparent KD of MS2 coat protein [1] [nM] | apparent KD of MS2 coat protein [2] [nM] | apparent KD of MS2 coat protein (Eterna round: R95, input ligand: FMN 200 uM) [nM] | apparent KD of MS2 coat protein (Eterna round: R95, input ligand: none) [nM] |
| --- | --- | --- | --- | --- | --- | --- |
| UAUUAUCAAGCAAGAUCCCACAUGAGGAUCACCCAUGUGCUCGUCUUAUUUCCGGCCUUAUUGGGCUCUCGUCUAAU [JR_STOV1_v2_Sub094] (Eterna round: R97, puzzle: Sensor, turn-off variant 1) | 34 | 33.5 | – | – | – | – |
| GCACGGAGUGUAGGAUAUCUGUGCGAUUAGCUCAGAGAAGGACACAUGAGGAUCACCCAUGUGUAACUCAAUACUAAUCCGUGC [Eli exng1 - 077] (Eterna round: R96, puzzle: Exclusion NG 1) | 10.6 | 10.7 | 7.89 | – | – | – |
| UAAUUAAGUGUGAGGAUAUGCUGGUCCUUGGAUCAGCAGAAGGCACAUGAGGAUCACCCAUGUAAUUUAUAUAU [Mat - Exclusion 4 - JL Mod - D52] (puzzle: Brourd's mod of Exclusion 4) | – | – | – | 85.5 | – | – |
| CUGUACUGAGGAUAUACAUGAGGAUCACCCAUGUGAUUUGGUGCACGCGUACGUGUACGUAGAAGGCAGUACAG [Mat - Exclusion 3 - Eli Mod - D39] (Eterna round: R97, puzzle: Exclusion 3) | 317 | 25.5 | – | – | – | – |
| GGAUGCUGAGUAAGGAUAUGGUAGGCUUGCGCAAACCAGAAGGUACAUGAGGAUCACCCAUGUAAGCAUCCAGU [eternacac ex4r4 #4] (Eterna round: R97, puzzle: Brourd's mod of Exclusion 4) | 16.3 | 14.5 | – | – | – | – |
| AGCGCCAUCGUGAGAUGGCGUAUUACAUGAGGAUCACCCAUGUAGGAUAUCGAUUGCUUUGCAGUCGAGAAGGACAUGUUUUAG [JL ENG3 3.80 Mod E] (Eterna round: R96, puzzle: Exclusion NG 3) | 200 | 74.3 | 69.4 | – | – | – |
| AUAAUGUGAGGAUAUCACGGCCCGGUAAAUCCGGUAAACGAUGAGAAGGCACAUGAGGAUCACCCAUGUUCCUG [EX4 A.2] (Eterna round: R97, puzzle: Exclusion 4) | 45.7 | 16.2 | – | – | – | – |
| CCGGAAAGGAAGGAUAUGCUAGACGAUAGUCUAGCAGAAGGUCCUACAUGAGGAUCACCCAUGUGGCCUCCCGG [Mat - Exclusion 6 - Eli Mod - D47] (Eterna round: R97, puzzle: Exclusion 6) | 680 | 114 | – | – | – | – |
| GUCAUGUUAGGAUAUCAAACAUGUGACUUCGGUCACUGUCCUGAGAAGGAACAUGAGGAUCACCCAUGUUGGAC [Ex4-3: 57] (puzzle: Exclusion 4) | – | – | – | 16.2 | – | – |
| CAAUAACAAGCGAGAUCCUACAUGAGGAUCACCCAUGUGCUCGUCUUAAAAGGUACUGUGACGAAAGUCACGGUACC [Eli 87 + Mat D67 3] (Eterna round: R97, puzzle: Sensor, turn-off variant 1) | 16.9 | 23 | – | – | – | – |
| ACAUCACAGCUAGGAUAUAGAUGACAUGAGGAUCACCCAUGUUGUCCCAUGUUGACGAAAACCGACUAGAAGGAGCUACAGAUG [Ex NG2 #5] (Eterna round: R96, puzzle: Exclusion NG 2) | 59.3 | 50.1 | 52.6 | – | – | – |
| ACAUGUAAUGCAGGAUAUCUGACACAUGAGGAUCACCCAUGUGACCAGAGGAAUUGCUAAGAGUCGGAGAAGGGUAUGUACAUG [Ex NG2 #53] (Eterna round: R96, puzzle: Exclusion NG 2) | 19.4 | 19.7 | 12.8 | – | – | – |
| GUCACAUGGACAUAGGAUCACAUGAGGAUCACCCAUGUGACUAACAAGCUUUUUGCUCGUCUUAUGUCCAUGUGAAG [Stov1/15-A1] (Eterna round: R97, puzzle: Sensor, turn-off variant 1) | 13.2 | 11.7 | – | – | – | – |
| GAAAAGAACGAGGAUAUGUUGGUGCAUACACUUGCAGAAGGCGUUACUUGAGGAUCACCCAAGUGAGACCGAGU [Cetelege] (Eterna round: R97, puzzle: Exclusion 6) | 273 | 124 | – | – | – | – |
| ACGCUACAUGAGGAUCACCCAUGUGAGGAUAUUUGAUCCAGGCAGCAAAGGAUGAUACGGAGAAGGUACAUGGU [Eternabot (L1) Solution 35] (Eterna round: R97, puzzle: Exclusion 1) | 265 | 147 | – | – | – | – |
| AGAGAAUACUCAGGAUAUCUGAAUAGAAAGAGAAGAGAAGGGAGACAUGAGGAUCACCCAUGUGAAGUCUUGAGACUACAUGGU [Prohibition 27 - Jieux - Exclusion NG 1] (Eterna round: R96, puzzle: Exclusion NG 1) | – | – | 225 | – | – | – |
| AAAAAACAAGGAUAUACGGAUGAAGAGAGUCUUAAUUUUUGACAUGAGGAUCACCCAUGUAGAAGGUGUUAAAA [JR_Exclusion2_Sub017] (puzzle: Exclusion 2) | – | – | – | 44.4 | 58.9 | 50.5 |
| GGCAAAUUUGUAAGGAUAUUGAGCAGCGAAGAGCUCGAGAAGGUACAUGAGGAUCACCCAUGUUUCUCAGACGC [Eternabot (Original) Solution 49] (Eterna round: R97, puzzle: Brourd's mod of Exclusion 4) | 43.4 | 17.7 | – | – | – | – |
| CUUCAGUGAGGAUAUGGCAUGCGCUGAUAAGCGCUCUCACGCCAGAAGGCACAUGAGGAUCACCCAUGUAAAAC [Eddionce] (puzzle: Exclusion 4) | – | – | – | 41.3 | – | – |
| UUAAAUCAUGUAGGAUAUGCGUGGCGAAGCUAUGCAGAAGGACAUGAGGAUCACCCAUGUUCUAGCGUCUGCGUACAGAUGCAA [JL ENG1 1.10] (Eterna round: R96, puzzle: Exclusion NG 1) | 93.1 | 17.5 | 17.5 | – | – | – |
| AUAUUACGAGGAUAUCGUUUUUUUCACAUGAGGAUCACCCAUGUUAUCCAUGUUUCGUUUCGAGAAGGCGUAAGUU [JR_E5_Sub070] (puzzle: Exclusion 5) | – | – | – | 46.9 | – | – |
| UUCGUGUAAGGAUAUACGACCCAUCCCAUUGGGAUGGGCACGUAGAAGGUACAUGAGGAUCACCCAUGUGCUCC [Ceacequa] (Eterna round: R96, puzzle: Exclusion 4) | 298 | 41.4 | 34.4 | – | – | – |
| ACAUGAGGAUCACCCAUGUCCGGCUGGUCUGUCUCGGCUGUCGAGGAUAUAGCACGGUAUCCGCGCUAGAAGGCGGGAGCCGGG [Aenatbe mod 88] (Eterna round: R96, puzzle: Exclusion NG 3) | 237 | 193 | 127 | – | – | – |
| CGAGCUUUUUGCUCGUCUUACAUGAGGAUCACCCAUGUCAUACAGAUAGAUAUACGAAAAGUAUAUCUAUCUGUAUG [Mod of sellena's -59.4, -80.7 kcal, A 10%] (Eterna round: R97, puzzle: Sensor, turn-off variant 1) | 23.3 | 27.5 | – | – | – | – |
| AGAUCUAGGACAGGAUAUACGGAUGUCUUCAUCGAAGAUGAAGACAUUACAUGAGGAUCACCCAUGUAGAAGGGUCCUAGAUCA [Omei Exc(NG) 2Av1] (Eterna round: R96, puzzle: Exclusion NG 2) | 13.8 | 13.1 | 10.6 | – | – | – |
